These are literature values, as cited in PMC11658791.

Read-outs that look alike come from different tables or passages of the source.

Data set [1] has as its target FpvAI (Pseudomonas aeruginosa) (UniProt P48632).
Data set [2] deals with TonB (Escherichia coli) (UniProt P02929).
Data set [3] shares this target. As to the kind of experiment: ITC.
In data set [4] the target is Colicin M (Cma) (Escherichia coli) (UniProt P05820).
UniProt P05820, sequence (P05820 whole entry): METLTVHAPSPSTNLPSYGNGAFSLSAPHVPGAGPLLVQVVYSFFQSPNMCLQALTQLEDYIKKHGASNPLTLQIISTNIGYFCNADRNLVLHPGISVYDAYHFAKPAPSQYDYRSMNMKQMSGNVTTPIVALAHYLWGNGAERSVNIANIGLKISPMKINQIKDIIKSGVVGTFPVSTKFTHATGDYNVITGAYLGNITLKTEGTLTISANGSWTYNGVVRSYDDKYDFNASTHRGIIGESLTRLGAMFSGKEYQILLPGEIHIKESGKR

UniProt P02929, sequence (P02929 whole entry): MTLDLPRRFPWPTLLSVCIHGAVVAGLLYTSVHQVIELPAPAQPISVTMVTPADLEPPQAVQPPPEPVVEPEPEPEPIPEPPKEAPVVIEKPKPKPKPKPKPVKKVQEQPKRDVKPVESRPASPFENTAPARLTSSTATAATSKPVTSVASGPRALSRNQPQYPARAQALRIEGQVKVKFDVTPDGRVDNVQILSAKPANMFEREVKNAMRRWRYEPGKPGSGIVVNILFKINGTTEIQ
UniProt P48632, sequence (P48632 44-815): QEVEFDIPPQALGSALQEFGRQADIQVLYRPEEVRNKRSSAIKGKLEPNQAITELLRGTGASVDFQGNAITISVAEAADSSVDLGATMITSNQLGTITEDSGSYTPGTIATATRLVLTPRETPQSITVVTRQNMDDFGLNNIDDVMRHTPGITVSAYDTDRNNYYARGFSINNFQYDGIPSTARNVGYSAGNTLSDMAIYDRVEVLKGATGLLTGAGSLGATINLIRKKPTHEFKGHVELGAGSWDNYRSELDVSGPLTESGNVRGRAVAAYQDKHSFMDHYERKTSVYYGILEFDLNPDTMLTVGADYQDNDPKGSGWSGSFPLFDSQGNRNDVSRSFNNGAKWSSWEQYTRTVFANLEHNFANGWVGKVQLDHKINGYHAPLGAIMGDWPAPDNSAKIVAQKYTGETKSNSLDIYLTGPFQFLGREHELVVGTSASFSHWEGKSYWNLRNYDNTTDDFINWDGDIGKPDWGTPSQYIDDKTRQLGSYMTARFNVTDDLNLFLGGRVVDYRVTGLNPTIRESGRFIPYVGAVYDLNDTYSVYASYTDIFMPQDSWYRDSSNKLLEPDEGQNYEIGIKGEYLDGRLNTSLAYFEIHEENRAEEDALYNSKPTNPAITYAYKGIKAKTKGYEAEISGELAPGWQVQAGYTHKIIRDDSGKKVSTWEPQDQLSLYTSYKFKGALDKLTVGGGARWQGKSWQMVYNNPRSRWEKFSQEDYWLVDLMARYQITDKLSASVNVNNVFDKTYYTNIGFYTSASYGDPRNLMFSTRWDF

For “Pyocin S2 (pyoS2NTD) N-terminal domain (from UniProt Q06584)”, the dissociation constant (Kd) in data set [1] is 0.00024 µM.

Regarding FhuA (from UniProt P06971), the Kd was 0.02 µM with TonB (Escherichia coli) [2], 0.2 µM with TonB (Escherichia coli) [3] and 0.0035 µM in data set [4].

The Kd is a measure of binding affinity in units of concentration.
